Five molecules from EP2586797A2 (Medtronic, Inc., dated 2013) can be followed below.

In test [1] the target is T1, Abeta42 beta amyloid peptide (UniProt P05067 672-713).
T1 construct: domain: Abeta42 beta amyloid peptide; also called Aβ42; Aβ
The experiment in a line: competition ELISA, purified antibody against biotinylated 6E10 on coated beta amyloid; normalised to the row 'Mouse' (chimeric mouse 6E10); <1 improved.

Test [2] addresses T1, Abeta42 beta amyloid peptide. The experiment in a line: competition ELISA, NS0 supernatant titrated against 0.25 ug/ml biotinylated mouse 6E10 (mouse MDT-2007) on coated beta amyloid; IC50 normalised to mouse 6E10 (=1; <1 improved). On the technique in general: ELISA stands for enzyme-linked immunosorbent assay.
For test [3] the target is unchanged. The experiment in a line: competition ELISA, purified antibody 0.003-16 ug/ml against biotinylated 6E10 (chimeric mouse 6E10) on coated beta amyloid, n=2.
Test [4] has the same target. The experiment in a line: competition ELISA, purified antibody on coated beta amyloid (Table 4), against the mouse reference.
Test [5] has the same target. The experiment in a line: competition ELISA, purified antibody against biotinylated 6E10 (chimeric mouse 6E10) on coated beta amyloid; the reference row itself.

T1 sequence (P05067 672-713 limits assumed): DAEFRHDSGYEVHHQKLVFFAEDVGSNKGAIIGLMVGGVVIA

B1: Composite human antibody variant VH4/VK1 (antibody, human IgG1, V domains shown)
VH: QVQLVQSGAEVKKPGASVKVSCTASGFNIKDTYIHWVRQARGQRLEWIGRFDPVNVNTRYDSRFRGRVTITSDASTNTAYMELSSLRSEDTAVYYCSRSYYNGRRRFTYWGQGTLVTVSS
VL: DIVMTQSPDSLTVSLGERATINCKASQSLLSSGNQKNYLTWYQQKPGQPPKLLIYWASIRESGVPDRFTGSGSGTFFTLTISSLQAEDVAVYYCQNDYNYPFTFGQGTKLEIK
notes: Human IgG1/kappa (pANT15/pANT13), NS0 cells; also called VH4/YK1
Turning to B1, the “Fold Difference (IC50 normalised to the reference)” value in test [1] amounted to 1.14 fold. Also, the “fold difference in IC50 relative to mouse 6E10” value in test [2] came out at 0.94 fold. Further, in test [3], the 50% inhibitory concentration (IC50) (as a rule, the concentration that gives 50% inhibition) was determined as 4.1 µg/mL.

B2: Composite human antibody variant VH5/VK1 (antibody, human IgG1, V domains shown)
VH: QVQLVQSGAEVKKPGASVKVSCTASGFNIKDTYIHWVRQARGQRLEWIGRFDPVNVNTRYDSRFRGRVTITSDASTSTAYMELSSLRSEDTAVYYCSRSYYNGRRRFTYWGQGTLVTVSS
VL: DIVMTQSPDSLTVSLGERATINCKASQSLLSSGNQKNYLTWYQQKPGQPPKLLIYWASIRESGVPDRFTGSGSGTFFTLTISSLQAEDVAVYYCQNDYNYPFTFGQGTKLEIK
notes: Human IgG1/kappa (pANT15/pANT13), NS0 cells; also called VH5/YK1
In the case of B2, the “Fold Difference (IC50 normalised to the reference)” value in test [1] was determined as 0.91 fold. Further, in test [2], the “fold difference in IC50 relative to mouse 6E10” value worked out at 0.8 fold. The same molecule displayed an IC50 in test [3] of 3.3 µg/mL.

B3: MDT-2007 (composite human antibody sequence variant VH4/VK2) (antibody, human IgG1, V domains shown)
VH: QVQLVQSGAEVKKPGASVKVSCTASGFNIKDTYIHWVRQARGQRLEWIGRFDPVNVNTRYDSRFRGRVTITSDASTNTAYMELSSLRSEDTAVYYCSRSYYNGRRRFTYWGQGTLVTVSS
VL: DIVMTQSPSSLTASVGDRVTITCKASQSLLSSGNQKNYLTWYQQKPGQPPKLLIYWASIRESGVPDRFTGSGSGTFFTLTISSLQAEDVAVYYCQNDYNYPFTFGQGTKLEIK
notes: Human IgG1/kappa (pANT15/pANT13), NS0 cells
As to B3, in test [1], the “Fold Difference (IC50 normalised to the reference)” value was 0.57 fold. In test [2], the “fold difference in IC50 relative to mouse 6E10” value was found to be 0.67 fold. The “fold increase in binding compared to the mouse reference” value in test [4] came out at 1.72 fold. The same molecule had an IC50 in test [3] of 2.1 µg/mL.

B4: Composite human antibody variant VH5/VK2 (antibody, human IgG1, V domains shown)
VH: QVQLVQSGAEVKKPGASVKVSCTASGFNIKDTYIHWVRQARGQRLEWIGRFDPVNVNTRYDSRFRGRVTITSDASTSTAYMELSSLRSEDTAVYYCSRSYYNGRRRFTYWGQGTLVTVSS
VL: DIVMTQSPSSLTASVGDRVTITCKASQSLLSSGNQKNYLTWYQQKPGQPPKLLIYWASIRESGVPDRFTGSGSGTFFTLTISSLQAEDVAVYYCQNDYNYPFTFGQGTKLEIK
notes: as for B3
With B4, the “Fold Difference (IC50 normalised to the reference)” value in test [1] is 0.72 fold. In test [2], the “fold difference in IC50 relative to mouse 6E10” value is 0.72 fold. The IC50 in test [3] was 2.6 µg/mL.

B5: mouse 6E10 anti-Aβ antibody (antibody, V domains shown)
VH: EVQLQQSGAELVKPGASVKLSCTASGFNIKDTYIHWVKQRPEQGLEWIGRFDPVNVNTRYDSRFRGKATITSDASSNTAYLHLNSLTSEDTAVYYCSRSYYNGRRRFTYWGQGTLVTVSA
VL: DIVMTQSPSSLTVTAGEKVALTCKASQSLLSSGNQKNYLTWYQQKPGQPPKLLIYWASIRESGVPDRFTGSGSGTFFTLTISSVQAEDLAVYYCQNDYNYPFTFGSGTKLEIK
notes: Murine monoclonal from hybridoma 6E10 (Covance); also called 6E10 mouse antibody
Regarding B5, in test [5], the “Fold Difference (IC50 normalised to the reference)” value is 1 fold. The same molecule yielded an IC50 in test [3] of 3.6 µg/mL.
